Source: publication doi:10.1101/2025.02.27.640524 (bioRxiv, 2025)

Biological target: T1, VelB-GFP (full length A. nidulans Velvet-like B fused to GFP) (Aspergillus nidulans, UniProt C8VTS4 1-369)
T1 sequence: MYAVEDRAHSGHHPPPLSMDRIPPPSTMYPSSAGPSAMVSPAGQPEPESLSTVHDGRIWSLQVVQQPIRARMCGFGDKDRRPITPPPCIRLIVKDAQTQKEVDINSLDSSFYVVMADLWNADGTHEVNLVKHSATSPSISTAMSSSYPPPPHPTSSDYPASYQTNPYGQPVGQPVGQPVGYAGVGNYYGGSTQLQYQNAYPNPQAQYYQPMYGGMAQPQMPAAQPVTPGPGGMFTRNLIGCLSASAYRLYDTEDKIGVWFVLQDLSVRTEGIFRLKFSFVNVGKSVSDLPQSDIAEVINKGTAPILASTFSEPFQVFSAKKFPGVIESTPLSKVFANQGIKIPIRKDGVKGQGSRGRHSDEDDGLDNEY
Assay: co-IP

B1: VosA-HA (A. nidulans VosA with HA tag) (natural protein)
chain: MSAANYPDPSLPRPSTSDDFELIVRQNPNRARVAGGKEKERKPVDPPPIVQIRVREEGTYLAQHYLQSPYFFMSCSLYDAQEDAPASIPPSTALTGTLVSSLHRLKDVDNTDGGFFVWGDLSIKVEGDFRLKFSLFEMRKTDVVFLKSIVSERFTVSPPKSFPGMAESTFLSRSFADQGVKLRIRKEPRTLIKRTAPRPEEYPQAAIPRSPSDRTAMQIPGSSYPAPPYQPTSRDYSYYAPVKRQRTSVDYGARGMYDADGRMRQMETYPQTATLYGQPGGYPTPMMGYPSGHGGVPDYAMSYGLPPSAQVPQMQDPAAQSRSSQQATMQSLGMVNPPGTPTPDSARAMMQQAYPRPQYSASTAVLPPLQQSRNYPQGTNGATRGYYEQSPQATPILPSQPLGTSEAERYGVPPGHTGYDHTGSANGTPR
  fold abundance of co-precipitated VosA against the VelB^ΔIDD-GFP strain: 10 fold
